# Assay results reported in patent US20260008852A1 (CRYSTAL BIOSCIENCE, published 2026).
# T1: His-tagged human B7-H3 (human, UniProt Q5ZPR3-2 29-245, limits assumed)
# T1 construct: Bought His-tagged protein coated on the ELISA plate; also called hu B7-H3; CD276
# T1 sequence (looked up): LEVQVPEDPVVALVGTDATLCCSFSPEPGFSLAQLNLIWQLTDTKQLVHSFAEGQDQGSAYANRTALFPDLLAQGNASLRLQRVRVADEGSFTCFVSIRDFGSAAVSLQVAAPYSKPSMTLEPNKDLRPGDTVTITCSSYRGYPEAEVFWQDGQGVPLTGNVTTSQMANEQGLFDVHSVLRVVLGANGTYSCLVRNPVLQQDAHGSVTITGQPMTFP
# T2: His-tagged mouse B7-H3 (mouse, UniProt Q8VE98 29-244, limits assumed)
# T2 construct: Bought His-tagged protein coated on the ELISA plate; also called mu B7-H3; murine B7-H3
# T2 sequence (looked up): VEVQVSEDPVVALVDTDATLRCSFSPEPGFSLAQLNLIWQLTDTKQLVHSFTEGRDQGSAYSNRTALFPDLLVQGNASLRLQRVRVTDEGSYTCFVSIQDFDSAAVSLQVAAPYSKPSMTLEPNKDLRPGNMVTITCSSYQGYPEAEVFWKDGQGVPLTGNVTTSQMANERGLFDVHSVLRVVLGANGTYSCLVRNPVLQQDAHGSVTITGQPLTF
# T3: His-tagged cynomolgus monkey B7-H3 (cynomolgus monkey)
# T3 chain: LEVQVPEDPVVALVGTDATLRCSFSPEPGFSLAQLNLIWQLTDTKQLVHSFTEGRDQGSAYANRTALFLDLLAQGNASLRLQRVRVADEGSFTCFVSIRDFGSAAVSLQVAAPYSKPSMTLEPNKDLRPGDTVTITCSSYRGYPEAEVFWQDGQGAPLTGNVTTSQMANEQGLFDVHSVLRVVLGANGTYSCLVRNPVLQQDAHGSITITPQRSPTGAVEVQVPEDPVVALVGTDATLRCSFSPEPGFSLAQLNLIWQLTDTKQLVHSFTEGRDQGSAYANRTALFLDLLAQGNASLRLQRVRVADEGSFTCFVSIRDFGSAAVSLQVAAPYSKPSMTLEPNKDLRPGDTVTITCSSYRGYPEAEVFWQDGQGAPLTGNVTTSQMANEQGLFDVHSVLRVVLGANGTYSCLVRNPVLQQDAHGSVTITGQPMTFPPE
# T4: B7-H3 on B7-H3-expressing CHO cells (Genescript) (UniProt Q5ZPR3 29-534, limits assumed)
# T4 construct: whole, on cells; also called CHO-K1/B7-H3; MFI B7-H3
# T4 sequence (looked up): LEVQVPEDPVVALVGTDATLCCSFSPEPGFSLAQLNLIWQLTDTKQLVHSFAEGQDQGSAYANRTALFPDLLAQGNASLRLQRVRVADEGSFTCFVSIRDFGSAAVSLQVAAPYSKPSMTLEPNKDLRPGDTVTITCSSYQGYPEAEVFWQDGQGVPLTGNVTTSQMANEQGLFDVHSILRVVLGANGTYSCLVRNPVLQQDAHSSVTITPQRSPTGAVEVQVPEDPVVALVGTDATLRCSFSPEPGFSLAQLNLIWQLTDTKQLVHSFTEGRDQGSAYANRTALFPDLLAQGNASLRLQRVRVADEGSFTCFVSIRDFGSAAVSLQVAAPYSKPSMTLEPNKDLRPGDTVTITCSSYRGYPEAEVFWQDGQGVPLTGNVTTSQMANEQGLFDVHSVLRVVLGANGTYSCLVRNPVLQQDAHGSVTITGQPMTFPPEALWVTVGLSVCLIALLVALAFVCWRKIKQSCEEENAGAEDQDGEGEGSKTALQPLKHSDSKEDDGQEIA
# How the values were obtained:
# His-tagged human B7-H3 [1] = biological target: T1, His-tagged human B7-H3; assay: ELISA OD450 on hu B7-H3 over OD450 on mu B7-H3
# His-tagged human B7-H3 [2] = biological target: T1, His-tagged human B7-H3; assay: ELISA, coated His-tagged antigen, scFv-Fc 1 ug/ml
# His-tagged mouse B7-H3 = biological target: T2, His-tagged mouse B7-H3; assay: ELISA, coated His-tagged antigen, scFv-Fc 1 ug/ml
# [3] = biological target: T3, His-tagged cynomolgus monkey B7-H3; assay: ELISA, coated His-tagged antigen, scFv-Fc 1 ug/ml
# [4] = biological target: T4, B7-H3 on B7-H3-expressing CHO cells …; assay: flow cytometry, B7-H3-expressing CHO cells, 10 ug/ml
# How it was run: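 Antibodies at 10 μg/ml in PBS/1% BSA/0.01% NaN3 incubated 60 min on ice with ~1.5e5 cells; parental CHO cells as counterscreen. After washing, read by flow cytometry; values are mean fluorescent intensities (MFI).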
hu:mu ratio (His-tagged human B7-H3 [1]),ELISA OD450 @ 1 ug/ml (His-tagged human B7-H3 [2]) [OD450],ELISA OD450 @ 1 ug/ml (His-tagged mouse B7-H3) [OD450],ELISA OD450 @ 1 ug/ml [3] [OD450],MFI @ 10 ug/ml [4] [MFI],Binder
2.39,2.13,0.891,2.02,79200,"40511p1.1.D8 (scFv, V domains shown, Tested as scFv-Fc (Expi293 supernatant)) VH: DVQLVESGGGVVRPGESLRLSCAASGFTFSSYAMSWVRQAPGEGLEWVSSISGSGGSTLYADSVKGRFTISRDSSNNSLYLQMNSLRAEDTAVYYCAKARNNFFDYWGLGTLVTVSS VL: EIVLTQSPGTLTLSPGERATLSCRASRSILTSLAWYQQRPGQAPRLLIYGANSRATGIPDRFSGSGSGTEFTLTISSLQSEDFAVYYCQQYYDWLTITFGGGTKVEIK"
2.78,2.14,0.771,2.12,67900,"40511p1.2.B5 (scFv, V domains shown, Tested as scFv-Fc (Expi293 supernatant)) VH: DVQLVESGGGVVRPGESLRLSCAASGFTFSSYAMSWVRQAPGEGLEWVSSISGSGGSTLYADSVKGRFTISRDSSNNSLYLQMNSLRAEDTAVYYCAKARNNFFDYWGLGTLVTVSS VL: EIVLTQSPGTLTLSPGERATLSCRASRSILTSLAWYQQRPGQTPRLLIYGANSRATGIPDRFSGSGSGTEFTLTISSLQSEDFAVYYCQQYYDWLTITFGGGTKVEIK"
1.25,2.13,1.7,2.34,77200,"40511p1.2.A12 (scFv, V domains shown, Tested as scFv-Fc (Expi293 supernatant); also called 40511p1.2.Al2) VH: DVQLVESGGGVVRPGESLRLSCAASGFTFSSYAESWVRQAPGEGLEWVSIISGSGGNTFYADSVKGRFTISRDNSKNTLYLQMNSLRAEDTAVYYCARFAYGFFDYWGLGTLVTVSS VL: EIVLTQSPGTLSVSPGERATLSCRASQTVGSKLAWYQQKPGQPPSLLIYDASTRATGIPDRFSGSGSGTDFTLTISSLQSEDFAVYYCQQYRNWPPLTFGGGTKVEIK"
1.16,2.12,1.82,2.18,75400,"40579p1.C2 (scFv, V domains shown, Tested as scFv-Fc (Expi293 supernatant)) VH: EVQLLESGGDLVQPGGSLRLSCAASGFNFSSYWMSWVRQAPGKGLEWVSGISISYGGNAYYADSVKGRFTVSRDNSKNTLYLQMNSLRAEDTAVYYCGRDRSPYQYRSMDVWGQGTTVTVSS VL: EIVLTQSPATLSVSPGERATFSCRASQTIGNKLAWYQQKPGQAPRLLIFSASTRATDIPDRFSGSGSGTDFTLTISSLQSEDFAVYYCQQYNNWPPLTFGGGTKVEIK"
1.12,2.21,1.98,2.08,85500,"40579p1.B8 (scFv, V domains shown, Tested as scFv-Fc (Expi293 supernatant)) VH: EVQLLESGGGLVQPGGSLRLSCAASGFTFSDYYMSWVRQAPGKGLEWVSGISMSSTIYYADSVKGRFTISRDNSKNTLYLQMNSLRAEDTAVYYCARHRSPYQYRSMDVWGQGTTVTVSS VL: EIVLTQSPGTLSLSPGERATLSCRASQSVNSKLAWYQQKPGQPPSLLIYDASRRATGIPDRFSGSGSGTEFTLTISSLQSEDFAVYYCQQYNNWPPLTFGGGTKVEIK"
1.32,2.2,1.67,2.28,74500,"40511p1.1.G1 (scFv, V domains shown, Tested as scFv-Fc (Expi293 supernatant)) VH: DVQLVESGGGVVRPGESLRLSCAASGFTFSSYAESWVRQAPGEGLEWVSIISGSGGNTFYADSVKGRFTISRDNSKNTLYLQMNSLRAEDTAVYYCARFAYGFFDYWGLGTLVTVSS VL: EIVLTQSPGTLSVSPGEGATLSCRASQTVGSKLAWYQQKPGQPPSLLIYDASTRATGIPDRFSGSGSGTDFTLTISSLQSEDFAVYYCQQYRNWPPLTFGGGTKVEIK"
1.33,2.06,1.55,2.3,82700,"40511p1.2.A4 (scFv, V domains shown, Tested as scFv-Fc (Expi293 supernatant)) VH: DVQLVESGGGVVRPGESLRLSCAASGFTFSSYAESWVRQAPGEGLEWVSIISGSGGNTFYADSVKGRFTISRDNSKNTLYLQMNSLRAEDTAVYYCARFAYGFFDYWGLGTLVTVSS VL: EIVLTQSPGTLSVSPGERATLSCRASQTVGSKLAWYQQKPGQAPRLLIYDASTRATDIPDRFSGSGSGTDFTLTISSLQSEDFAVYYCQQYRNWPPLTFGGGTKVEIK"
4.64,0.641,0.138,2.03,22100,"40511p1.1.H10 (scFv, V domains shown, Tested as scFv-Fc (Expi293 supernatant)) VH: DVQLVESGGGVVRPGESLRLSCAASGFTFSNYAMNWVRQAPGEGLEWVSRINYKGYNITYYADSVKGRFTISRDNSKNTLYLQMNSLRAEDTAVYYCAKSGSNSNNFFDYWGLGTLVTVSS VL: EIVLTQSPGNLSLSPGERATLSCRASQSVGSQLGWYQQKPGQAPRLLIYGASTRATGIPDRFSGSGSGTEFALTISSLQSEDFAVYYCQQYYDWPPLTFGGGTKVEIK"
1.74,0.492,0.283,1.33,36000,"40579p1.D1 (scFv, V domains shown, Tested as scFv-Fc (Expi293 supernatant)) VH: EVQLLESGGGLVQPGGSLRLSCAASGFTFSDYYMSWVRQAPGKGLEWVSSISISYGGTTYYADSVKGRFTISRDNSKNTLYLQMNSLRAEDTAVYYCARDRSPYQCRSMDVWGQGTTVTVSS VL: EIVLTQSPGSLSLSPGERATLSCRASQSVNSDLAWYQQKPGQAPRLLIYAASSRATGIPARFSGSGSGTEFTLTISSLQSEDFAVYYCQQYNNWPPLTFGGGTKVEIK"
1.37,1.98,1.45,2.37,78500,"40511p1.2.G10 (scFv, V domains shown, Tested as scFv-Fc (Expi293 supernatant)) VH: DVQLVESGGGVVRPGESLRLSCAASGFTFSNYAMNWVRQAPGEGLEWVSRINYKGYNITYYADSVKGRFTISRDNSKNTLYLQMNSLRAEDTAVYYCAKSGSNSNNFFDYWGLGTLVTVSS VL: EIVLTQSPGTLSLSPGERATLSCRASQTVGSKLAWYQQKPGQAPRLLIYGASTRATDIPDRFSGSGSGTEFTLTISSLQSEDFAVYYCQQYINWPPLSFGGGTKVEIK"
2.25,1.71,0.758,2.22,62200,"40511p1.1.H5 (scFv, V domains shown, Tested as scFv-Fc (Expi293 supernatant)) VH: DVQLVESGGGVVRPGESLRLSCAASGFTFSNYAMNWVRQAPGEGLEWVSRINYKGYNITYYADSVKGRFTISRDNSKNTLYLQMNSLRAEDTAVYYCAKSGSNSNNFFDYWGLGTLVTVSS VL: EIVLTQSPGTLSLSPGERATLSCRASQSIRSDLAWYQQKPGQAPRLLIYGAASRATGIPARFSGSGSGTEFTLTISSLQSGDFAVYYCQQYNSWPPLTFGGGTKVEIK"
2.1,1.01,0.48,1.87,40800,"40579p1.D8 (scFv, V domains shown, Tested as scFv-Fc (Expi293 supernatant)) VH: EVQLLESGGGLVQPGGSLRLSCAASGFTFSDYYMSWVRQAPGKGLEWVSSISISYGGTTYYADSVKGRFTISRDNSKNTLYLQMNSLRAEDTAVYYCARDRSPYQCRSMDVWGQGTTVTVSS VL: EIVLTQSPGTLSLSPGERATLSCRASQSIRSDLAWYQQKPGQAPRLLIYNTVTRATGVPDRFSGSGSGTEFTLTISSLQSEDFAVYYCQQYNSWPPLTFGGGTKVEIK"
